# Test results from patent US20230295310A1 (ABCELLERA BIOLOGICS, published 2023).
# Changes are numbered by the printed parent chain.
# B1: mAb 137 (antibody, V domains shown)
# VH: QVQLVESGGGVVQPGRSLRLSCAASGFTFSTYGMHWVRQAPGKGLEWVAVIWYDGSHKYYADSVKGRFTISRDNSKKTLYLQMNSLRAEDTGIYYCARTGISGNMSYFYFDHWGQGILVTVSS
# VL: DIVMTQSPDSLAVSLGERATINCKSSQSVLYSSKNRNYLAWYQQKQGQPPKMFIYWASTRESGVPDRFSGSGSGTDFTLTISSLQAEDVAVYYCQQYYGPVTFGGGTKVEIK
# notes: VH and VL only
# B2: mAb 52 (antibody, V domains shown)
# VH: QVQLVQSGAEVKKPGASVKVSCKASGYTFTSHDINWVRQATGQGLEWMGWLNPNSGKTGYAQKFQGRVTMARDTSMYTADMELSSLRFEDTAVYYCARVGHYDMWPGFFSFDYWGQGTLVTVSS
# VL: DIQMTQSPSSLSASVGDRIIITCRASQDIRNDLGWYQQKPGKAPKRLIYAASSLQSGVPSRFSGSRSGTEFTLTISSLHPEDFATYYCLQHRSYPYTFGQGTNLEIK
# notes: VH and VL only
# B3: mAb 141 (antibody, V domains shown)
# VH: QVQLVQSGAEVKKPGASVKVSCKASGYTFTSYYIHWVRQAPGQGLDWMGIINPSGGITGYAQKLQGRVTMTRDTSTTTVYMELSSLRSDDTAVYYCARGVRGNYYYYYMDVWGKGTTVTVSS
# VL: EIVLTQSPDFQSVTPKEKVTITCRASQSIGSKLHWYQQKPDQSPKLLIKYASQSFSGVPSRFSGSGSGTDFNLTINSLEAEDAATFYCHQSSGLPYTFGQGTKLEIK
# notes: VH and VL only
# B4: mAb 145 (antibody, V domains shown)
# VH: B3 VH with S31N, L64F
# VL: B3 VL with Y50F, A80P
# notes: VH and VL only
# B5: mAb 188 (antibody, V domains shown)
# VH: QVQLVESGGGVVQPGRSLRLSCAASGFTFSGYGMHWVRQAPGKGLEWVAIIYYNGKKEYYADSVKGRFTISRDNSKNTLYLQMNSLRAEDTAVYYCTRGEGYNWFDPWGQGTLVTVSS
# VL: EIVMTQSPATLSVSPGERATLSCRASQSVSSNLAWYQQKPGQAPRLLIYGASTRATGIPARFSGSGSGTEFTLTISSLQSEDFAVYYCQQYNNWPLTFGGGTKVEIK
# notes: VH and VL only
# B6: mAb 189 (antibody, V domains shown)
# VH: B5 VH with N54D, K57N, E58K, N77S, R87G, E89D, E100K
# VL: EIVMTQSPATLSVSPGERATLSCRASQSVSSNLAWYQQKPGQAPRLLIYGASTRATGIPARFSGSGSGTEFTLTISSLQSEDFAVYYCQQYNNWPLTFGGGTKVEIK
# notes: VH and VL only
# B7: mAb 191 (antibody, V domains shown)
# VH: B5 VH
# VL: EIVMTQSPATLSVSPGERATLSCRASQSVSSNLAWYQQKPGQAPRLLIYGASTRATGIPARFSGSGSGTDFTLTISSLQSEHFAVYYCQQYTNWPLTFGGGTKVEIK
# notes: VH and VL only
# B8: mAb 201 (antibody, V domains shown)
# VH: B5 VH
# VL: B7 VL with N32S, D70E, H82D, T92N
# notes: VH and VL only
# B9: mAb 197 (antibody, V domains shown)
# VH: B5 VH with R16G, Y52W, K56R, E58T, D62E, Y80S, A88V, R98T, E100Q
# VL: B7 VL with D70E, H82D, Y91F, T92N, N93A, V104M
# notes: VH and VL only
# B10: mAb 203 (antibody, V domains shown)
# VH: B5 VH with R16G, S30R, K56R, E58T, D62E, Y80S, A88V, R98A, E100Q
# VL: B7 VL with D70E, H82D, Y91F, T92N, N93A, V104M
# notes: VH and VL only
# B11: mAb 192 (antibody, V domains shown)
# VH: B5 VH with T112I
# VL: B7 VL with D70E, H82D, Q89K, T92K
# notes: VH and VL only
# B12: mAb 199 (antibody, V domains shown)
# VH: B5 VH with S71F, Q82H
# VL: B7 VL with S31R, D70E, H82D, T92N
# notes: VH and VL only
# B13: mAb 198 (antibody, V domains shown)
# VH: B5 VH with R16G, Y52W, K56R, E58T, D62E, Y80S, A88I, R98T, E100Q
# VL: B7 VL with D70E, H82D, Y91F, T92N, N93A, V104M
# notes: VH and VL only
# Target: T1, human CD3e/d (human, UniProt P07766 23-126; P04234 22-105)
# T1 construct: Bought soluble protein; also called hCD3e/d; human CD3/ed (Sino CT038-H2508H)
# T1 sequence (P07766 23-126, chain 1 of 2): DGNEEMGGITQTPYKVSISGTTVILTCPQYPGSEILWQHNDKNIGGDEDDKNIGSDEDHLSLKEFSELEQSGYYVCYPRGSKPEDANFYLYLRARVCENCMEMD
# T1 sequence (P04234 22-105, chain 2 of 2): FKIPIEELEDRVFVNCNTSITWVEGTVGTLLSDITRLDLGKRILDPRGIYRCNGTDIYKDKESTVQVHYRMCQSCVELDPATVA
# Assay: SPR (Carterra LSA), mAb on chip
# Method in brief: (§1)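 Purified mAbs amine-coupled (EDC/S-NHS) at 10 μg/mL in 10 mM NaOAc pH 4.25 onto an HC-30M chip, with benchmark and negative-control mAbs; analyte flowed over the array. Double-referenced sensorgrams fitted globally to a 1:1 Langmuir model for ka, kd and KD.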
row,Kd,Binder
1,181 nM,B1
2,17.1 nM,B2
3,92.1 nM,B3
4,61 nM,B4
5,36 nM,B5
6,110 nM,B6
7,28 nM,B7
8,28 nM,B8
9,49 nM,B9
10,17 nM,B10
11,9.2 nM,B11
12,26 nM,B12
13,41 nM,B13

# Target: T2, human CD3e/g (human, UniProt P07766 23-126; P09693 23-116)
# T2 construct: Bought soluble protein; also called hCD3e/g; human CD3e/g (Acro CDD-C52W4)
# T2 sequence (P07766 23-126, chain 1 of 2): as the sequence (P07766 23-126, chain 1 of 2) above
# T2 sequence (P09693 23-116, chain 2 of 2): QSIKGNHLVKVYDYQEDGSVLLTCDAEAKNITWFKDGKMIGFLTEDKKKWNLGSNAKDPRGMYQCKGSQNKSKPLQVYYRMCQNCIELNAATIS
# Assay: SPR (Carterra LSA), mAb on chip
# Method in brief: as §1
row,Kd,Binder
1,950 nM,B1
2,112 nM,B2
3,26 nM,B3
4,13.1 nM,B4
5,17 nM,B5
6,60 nM,B6
7,15 nM,B7
8,13 nM,B8
9,17 nM,B9
10,9.5 nM,B10
11,9.3 nM,B11
12,29 nM,B12
13,30 nM,B13
